# Patent publication US20220356245A1 (FORTY SEVEN, published 2022)
# Numbering of substitutions follows the chain as printed. Names may count otherwise. Where two headings read alike, the source gives them in different places.
# T1: mouse CD47 (mCD47) expressed on CHO cells (mouse, UniProt Q61735 19-303)
# T1 construct: whole, on cells; also called CHO-mCD47
# T1 sequence (looked up): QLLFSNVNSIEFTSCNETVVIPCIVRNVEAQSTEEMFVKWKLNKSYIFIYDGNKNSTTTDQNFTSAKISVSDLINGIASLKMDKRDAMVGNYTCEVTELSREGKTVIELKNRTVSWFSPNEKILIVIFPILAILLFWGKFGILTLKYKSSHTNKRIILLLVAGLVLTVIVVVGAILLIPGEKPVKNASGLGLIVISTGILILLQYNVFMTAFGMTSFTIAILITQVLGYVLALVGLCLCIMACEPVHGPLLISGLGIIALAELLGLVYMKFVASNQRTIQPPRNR
# B1: Candidate 7 (VT008-AL5-10G7-10K7), mouse IgG (antibody, V domains shown)
# VH: QVQLQQPGAELVMPGSSVKLSCKTSGYTFTKYWMHWVKRRPGQGLEWIGEINPSDTYTNYNQKFKGKSTLTVDKSSSTAYMQLSSLTSEDSAVYFCARVATMVARGFAYWGQGTLVTVSA
# VL: DIVMTQSHKFMSTSVGDRVSITCKASQDVSGAVVWYQEKPGQSPNLLIYLATYRYTGVPDRFTGSGSGTDFTLTIRSVQAEDMAVYYCQQYYSIPWTFGGGTKLEIK
# B2: h20-H3-L3Y (candidate 20.28), hIgG4-S228P (antibody, V domains shown)
# VH: QVQLVQSGAEVKKPGASVKVSCKASGYSFTDYYINWVRQAPGQGLEWMGRIYPGIGNTYYNKKFKGRVTVTRDTSISTAHMELSSLRSDDTAVYYCARGHYGRGMDYWGQGTAVTVSS
# VL: EIVLTQSPDSLAVSLGERATINCKSSQSLLNSIDQKNYLAWYQQKAGQSPKLLIYYASTKESGVPDRFSGSGSGTDFTLTIDSLQAEDVAVYYCQQHYSTPWTFGGGTKVEIKR
# notes: also called H20-VH3-VL3,Y
# B3: h20-H4-L4Y (candidate 20.29), hIgG4-S228P (antibody, V domains shown)
# VH: B2 VH with A16S, V70I, R72A, T74K, I76T, H80Y, D89E, A113T
# VL: B2 VL with E1D, L4M, A46P, S49P, D82S, Y93F, T108A
# notes: also called H20-VH4-VL4,Y
# B4: h20-H4-L5Y (candidate 20.30), hIgG4-S228P (antibody, V domains shown)
# VH: B2 VH with A16S, V70I, R72A, T74K, I76T, H80Y, D89E, A113T
# VL: B2 VL with E1D, L4M, A46P, S49P, D82S, S83G, Y93F, K113R
# notes: also called H20-VH4-VL5,Y
# B5: h20-VH2-VL5 (candidate 20.10) (antibody, human IgG4 S228P, kappa, V domains shown)
# VH: B2 VH with V70I, I76A, H80Y, D89E, A113L
# VL: B2 VL with E1D, L4M, A46P, S49P, Y56F, D82S, S83G, Y93F, K113R
# notes: hIgG4-S228P/kappa; also called h20-H2-L5
# B6: h20-VH3-VL3 (candidate 20.13) (antibody, human IgG4 S228P, kappa, V domains shown)
# VH: B2 VH
# VL: B2 VL with Y56F
# notes: hIgG4-S228P/kappa; also called h20-H3-L3
# B7: h20-VH4-VL4 (candidate 20.19) (antibody, human IgG4 S228P, kappa, V domains shown)
# VH: B2 VH with A16S, V70I, R72A, T74K, I76T, H80Y, D89E, A113T
# VL: B2 VL with E1D, L4M, A46P, S49P, Y56F, D82S, Y93F, T108A
# notes: hIgG4-S228P/kappa; also called h20-H4-L4
# B8: h20-VH4-VL5 (candidate 20.20) (antibody, human IgG4 S228P, kappa, V domains shown)
# VH: B2 VH with A16S, V70I, R72A, T74K, I76T, H80Y, D89E, A113T
# VL: B2 VL with E1D, L4M, A46P, S49P, Y56F, D82S, S83G, Y93F, K113R
# notes: hIgG4-S228P/kappa; also called h20-H4-L5
# B9: hIgG4 chimeric candidate 22 (mouse VH/VL, human Fcγ4-S228P and human Kappa backbone) (antibody, V domains shown)
# VH: QVQLQQPGAELVKPGASVKLSCKASGYTFTTYWMHWVKQRPGQGLEWIGMIHPNSGTTNYNEKFKSKATLTVDKSSSSTYMQLSSLTSEDSAVYYCTRSHYYDGHFSYWGQGTLVTVSA
# VL: DIVMSQSPSSLAVSAGEKVTMSCKSSQSLLNSRTRKNYLAWYQQKPGQSPKLLIYWASTRESGVPDRFTGSGSGTDFTLTISSVQAEDLAVYYCKQSYNLWTFGGGTRLEIKR
# notes: hIgG4-S228P/kappa; also called Chim; 22
# B10: h22-VH4-VL3 (candidate 22.15) (antibody, human IgG4 S228P, kappa, V domains shown)
# VH: QVQLVQSGAEVKKPGASVKVSCKGSGYTFTTYWMHWVRQAPGQGLEWMGMIHPNSGTTNYNEKFKSRVTLTRDTSISTAYMELSRLTSDDTAVYYCTRSHYYDGHFSYWGQGTMVTVSS
# VL: EIVLTQSPDSLAVSLGERATINCKSSQSLLNSRTRKNYLAWYQQKAGQSPKLLIYWASTRESGVPDRFSGSGSGTDFTLTIDSLQAEDVAVYYCKQSYNLWTFGGGTKVEIKR
# notes: hIgG4-S228P/kappa
# B11: h22-VH4-VL4 (candidate 22.16) (antibody, human IgG4 S228P, kappa, V domains shown)
# VH: B10 VH
# VL: DIVMTQSPDSLPVSLGERATINCKSSQSLLNSRTRKNYLAWYQQKPGQPPKLLIYWASTRESGVPDRFTGSGSGTDFTLTISALQAEDVAVYYCKQSYNLWTFGQGTRLEIKR
# notes: hIgG4-S228P/kappa
# Experiments:
# [1] = target: T2, human CD47 (hCD47) expressed on cells (human, UniProt Q08722 19-323); assay: cell-based or functional assay
# [2] = target: T2, human CD47 (hCD47) expressed on cells; assay: flow cytometry, Raji cells
# Protocol: Raji cells (ATCC-CLL-86; 2×10⁵ cells/well of 96-well plate) were first incubated at +4° C. for 30 minutes with serial dilutions of anti-CD47 antibodies or control isotype antibody (in mIgG2a or mIgG1 format). The cells were then washed and incubated for 30 minutes at +4° C. with a PE-conjugated F(ab)′2 goat anti-mouse IgG antibody ( 1/100 dilution, Beckman Coulter). After washings, the fluorescence of the cells was analyzed by flow cytometry on an Accuri-C6 flow cytometer (BD Biosciences).
# The delta of MFI, representing the difference between the intensity measured with the tested antibody and the intensity in the absence of antibody, was calculated for each antibody concentration and the values were plotted against the antibody concentrations. The EC50 values were then calculated by using a nonlinear regression analysis model of the GraphPad Prism software.
# [3] = target: T3, hu-sCD47-6His; extracellular domain of human CD47 antigen with 6His-tag (human); assay: SPR Biacore T200, antibody captured, hCD47-his analyte;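 further: antibodies captured on anti-IgG (Fc) CM5 chip, five sequential 10 min antigen injections at rising concentrations, reference flow cell and antigen-free cycle as controls, 1:1 model fit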
# T3 construct: also called hCD47-his; soluble hCD47
# [4] = target: T1, mouse CD47 (mCD47) expressed on CHO …; assay: flow cytometry, CHO-mCD47 cells
# [5] = target: T2, human CD47 (hCD47) expressed on cells; assay: flow cytometry, hCD47-CHO cells, competition with His-hSIRPα
# Protocol: Human CD47-transfected cells (3×10⁵ cells/well of 96-well plate) were first incubated at +4° C. for 30 minutes with serial dilutions of anti-CD47 antibodies or isotype control antibody (in mIgG2a or mIgG1 format). […] The percentage inhibition was plotted against antibody concentration and the IC50 values were calculated using a nonlinear regression analysis model of the GraphPad Prism software.
# [6] = target: T2, human CD47 (hCD47) expressed on cells; assay: flow cytometry on Raji cells, hIgG4 format, delta MFI
# [7] = target: T3, hu-sCD47-6His; extracellular domain of …; assay: SPR Biacore
# Description: (§1) An anti-human or anti-mouse IgG (Fc) was first immobilized on the surface of Serie S Sensor Chips CM5 using the human or mouse antibody capture and amine coupling kits, following the manufacturer's instructions (GE Healthcare). […] The mouse, chimerized or humanized antibodies to be tested were then captured onto the appropriate anti-mouse or anti-human IgG surface in all flow cells except flow cell 1 used as control, at concentration and contact time adjusted so that ˜300 RU were captured on the surface. Binding kinetics were studied by passing increasing concentrations of hCD47-his in a series of five 10 minute injections through all flow cells at a rate of 30 μL/min. […] Following the final injection, buffer was passed across each flow cell for 60 minutes (mouse) or 30 minutes (human) to monitor the dissociation of bound antigen. Regeneration of the binding surface was carried out at the end of the cycle by flowing 3 M MgCl₂ for 60 s at 20 μL/min followed by 10 mM glycine-HCl, pH 1.7 for 180 s at 10 μl/min (for human) or by flowing 10 mM glycine-HCl, ph 1.7 for 360 s at 10 μl/min (for mouse). A second cycle with the same antibodies but no antigen was run as a control. Kinetics binding constants were estimated by non-linear fitting of the sensogram data to the 1:1 binding model provided by the Biacore T200 evaluation software.
# [8] = target: T2, human CD47 (hCD47) expressed on cells; assay: flow cytometry, Raji cells, competition with hSIRPα
# [9] = target: T2, human CD47 (hCD47) expressed on cells; assay: flow cytometry, Raji cells; remark: listed apart in the source
# [10] = target: T2, human CD47 (hCD47) expressed on cells; assay: flow cytometry on Raji cells, hIgG4 format: inhibition of hSIRPα binding to hCD47
# [11] = target: T2, human CD47 (hCD47) expressed on cells; assay: as above; remark: listed apart in the source
# [12] = target: T2, human CD47 (hCD47) expressed on cells; assay: flow cytometry on Raji cells, hIgG4 format, delta MFI; remark: listed apart in the source
# [13] = target: T2, human CD47 (hCD47) expressed on cells; assay: as above; remark: listed apart in the source
# [14] = target: T2, human CD47 (hCD47) expressed on cells; assay: flow cytometry on Raji cells, hIgG4 format: inhibition of hSIRPα binding to hCD47; remark: listed apart in the source
# [15] = target: T2, human CD47 (hCD47) expressed on cells; assay: as above; remark: listed apart in the source
# [16] = target: T1, mouse CD47 (mCD47) expressed on CHO …; assay: flow cytometry, CHO-mCD47 cells (not shown)
# [17] = target: T3, hu-sCD47-6His; extracellular domain of …; assay: SPR Biacore; remark: listed apart in the source
# Description: as §1
# [18] = target: T2, human CD47 (hCD47) expressed on cells; assay: flow cytometry on Raji cells, hIgG4 format, delta MFI; remark: listed apart in the source
# [19] = target: T3, hu-sCD47-6His; extracellular domain of …; assay: SPR Biacore; head read as x 10^-4
# [20] = target: T2, human CD47 (hCD47) expressed on cells; assay: flow cytometry, Raji cells, competition with hSIRPα; remark: listed apart in the source
# [21] = target: T2, human CD47 (hCD47) expressed on cells; assay: flow cytometry, Raji cells; remark: listed apart in the source
# [22] = target: T4, N-deglycosylated soluble hCD47-His (PNGase treated) (human, N-glycans removed with PNGase); assay: ELISA, one-site binding saturation fit, deglycosylated hCD47
# T4 construct: also called deglycosylated-hCD47; N-Deglycosylated hCD47-His
# Protocol: (§2) The Bmax values were calculated by using the binding saturation/one-site binding model of the GraphPad Prism software (mean +/− SD of triplicates).
# [23] = target: T3, hu-sCD47-6His; extracellular domain of …; assay: ELISA, coated glycosylated hCD47-His
# Protocol: (§3) The EC50 and EC95 values were calculated by using the non-linear regression/log (antibody) versus response (four parameters) model of the GraphPad Prism software.
# [24] = target: T2, human CD47 (hCD47) expressed on cells; assay: flow cytometry, Raji cells, competition with hSIRPα; remark: listed apart in the source
# [25] = target: T2, human CD47 (hCD47) expressed on cells; assay: flow cytometry, Raji cells; remark: listed apart in the source
# [26] = target: T3, hu-sCD47-6His; extracellular domain of …; assay: ELISA, one-site binding saturation fit, glycosylated hCD47
# Protocol: (§4) The equilibrium binding constant values were calculated by using the binding saturation/one-site binding model of the GraphPad Prism software (mean +/− SD of triplicates).
# [27] = target: T3, hu-sCD47-6His; extracellular domain of …; assay: as above; remark: listed apart in the source
# Protocol: as §2
# [28] = target: T4, N-deglycosylated soluble hCD47-His …; assay: ELISA, coated N-deglycosylated hCD47-His
# [29] = target: T3, hu-sCD47-6His; extracellular domain of …; assay: SPR Biacore; remark: listed apart in the source
# Description: as §1
# [30] = target: T4, N-deglycosylated soluble hCD47-His …; assay: ELISA, one-site binding saturation fit, deglycosylated hCD47; remark: listed apart in the source
# Protocol: as §4
# [31] = target: T4, N-deglycosylated soluble hCD47-His …; assay: ELISA; against glycosylated hCD47-His
# Protocol: as §3
binder,measurement,setting,value
B1,"Phagocytic index, Raji cells and human macrophages, antibody at 0.125 µg/mL",[1],124 Raji cells ingested per 100 macrophages
same,EC50,[2],0.058 µg/mL
same,Kd,[3],1.94 nM
same,koff,[3],0.00037 s⁻¹
same,kon,[3],190000 M⁻¹ s⁻¹
same,binding result,[4],no binding (tested: 7.3 µg/mL highest concentration)
same,IC50,[5],0.657 µg/mL
B2,EC50 (read off the curve),[6],~0.1 µg/mL
same,Kd,[7],2.32 nM
same,koff,[7],0.000573 s⁻¹
same,kon,[7],264000 M⁻¹ s⁻¹
same,IC50,[8],0.17 µg/mL
same,EC50,[9],0.117 µg/mL
same,IC50 (read off the curve),[10],~0.3 µg/mL
B3,IC50 (read off the curve),[11],~0.4 µg/mL
same,Kd,[7],2.61 nM
same,koff,[7],0.000761 s⁻¹
same,kon,[7],306000 M⁻¹ s⁻¹
same,EC50 (read off the curve),[12],~0.1 µg/mL
same,IC50,[8],0.181 µg/mL
same,EC50,[9],0.147 µg/mL
B4,EC50 (read off the curve),[13],~0.1 µg/mL
same,Kd,[7],2.82 nM
same,koff,[7],0.000693 s⁻¹
same,kon,[7],254000 M⁻¹ s⁻¹
same,IC50 (read off the curve),[14],~0.3 µg/mL
same,IC50,[8],0.149 µg/mL
same,EC50,[9],0.105 µg/mL
B5,IC50 (read off the curve),[15],~0.2 µg/mL
same,binding result,[16],no binding
same,Kd,[17],5.85 nM
same,kon,[17],118000 M⁻¹ s⁻¹
same,EC50 (read off the curve),[18],~0.1 µg/mL
same,koff,[19],0.000634 s⁻¹
same,IC50,[20],0.051 µg/mL
same,EC50,[21],0.191 µg/mL
B6,EC50 (read off the curve),[6],~0.08 µg/mL
same,binding result,[16],no binding
same,Kd,[17],3.05 nM
same,kon,[17],214000 M⁻¹ s⁻¹
same,koff,[19],0.000594 s⁻¹
same,IC50,[20],0.173 µg/mL
same,EC50,[21],0.147 µg/mL
same,IC50 (read off the curve),[10],~0.2 µg/mL
B7,IC50 (read off the curve),[11],~0.3 µg/mL
same,binding result,[16],no binding
same,Kd,[17],4.15 nM
same,kon,[17],179000 M⁻¹ s⁻¹
same,EC50 (read off the curve),[12],~0.1 µg/mL
same,koff,[19],0.000685 s⁻¹
same,IC50,[20],0.192 µg/mL
same,EC50,[21],0.139 µg/mL
B8,EC50 (read off the curve),[13],~0.1 µg/mL
same,IC50 (read off the curve),[14],~0.3 µg/mL
same,binding result,[16],no binding
same,Kd,[17],3.5 nM
same,kon,[17],192000 M⁻¹ s⁻¹
same,koff,[19],0.000624 s⁻¹
same,IC50,[20],0.095 µg/mL
same,EC50,[21],0.136 µg/mL
B9,Bmax2,[22],2.57 OD value
same,EC50,[23],0.0387 nM
same,EC95,[23],4.67 nM
same,IC50,[24],0.14 µg/mL
same,EC50,[25],0.122 µg/mL
same,equilibrium binding constant,[26],34.4 pM
same,Bmax,[27],2.85 OD value
same,EC50,[28],0.042 nM
same,EC95,[28],6.67 nM
same,Kd,[29],12.2 nM
same,koff,[29],0.000381 s⁻¹
same,kon,[29],31200 M⁻¹ s⁻¹
same,equilibrium binding constant,[30],31.8 pM
same,EC50 ratio Deglycosylated/Glycosylated,[31],1.1 ratio
same,EC95 ratio Deglycosylated/Glycosylated,[31],1.4 ratio
B10,IC50,[24],0.098 µg/mL
same,EC50,[25],0.124 µg/mL
same,Kd,[29],12.1 nM
same,koff,[29],0.000351 s⁻¹
same,kon,[29],29100 M⁻¹ s⁻¹
B11,IC50,[24],0.116 µg/mL
same,EC50,[25],0.184 µg/mL
same,Kd,[29],9.37 nM
same,koff,[29],0.000263 s⁻¹
same,kon,[29],28200 M⁻¹ s⁻¹
